# The supplement of paper PMC7877785
# ± gives the uncertainty stated by the source.
# Assay: self-splicing fitness, log relative to wild type (ln ratio); higher = more splicing; Tetrahymena group I intron in knt gene, E. coli kanamycin selection, DiMSum; sequences stand for … in CUCUCU…GGAGGGAAAAGUUAUCAGGCAUGCACCUGGUAGCUAGUCUUUAAACCAAUAGAUUGCAUCGGUUUAAAAGGCAAGACCGUCAAAUUGCGGGAAAGGGGUCAACAGCCGUUCAGUACCAAGUCUCAGGGGAAACUUUGAGAUGGCCUUGCAAAGGGUAUGGUAAUAAGCUGACGGACAUGGUCCUAACCACGCAGCCAAGUCCUAAGUCAACAGAUCUUCUGUUGAUAUGGAUGCAGUUCACAGACUAAAUGUCGGUCGGGGAAGAUGUAUUCUUCUCAUAAGAUAUAGUCGGACCUCUCCUUAAUGGGAGCUAGCGGAUGAAGUGAUGCAACACUGGAGCCGCUGGGAACUAAUUUGUAUGCGAAAGUAUAUUGAUUAGUUUUGGAGUACUCGUGGUCG
# Method in brief: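 Pooled colonies went to amplicon sequencing on an Illumina HiSeq 2500 after six replicate transformations. The plates were LB agar with 100 μg/mL carbenicillin, 50 μM IPTG and 0.2% rhamnose, with or without 25 μg/mL kanamycin, incubated overnight at 37°C or 30°C. The E. coli BL21(DE3) library had all eight P1ex-region intron nucleotides randomised, the intron placed in the knt kanamycin-resistance gene on pET-22b(+). DiMSum fitness is the error-weighted combination of replicate fold changes, kanamycin against none, normalised to wild type.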
Sequence,self-splicing fitness (ln) (30 °C),self-splicing fitness (ln) (37 °C)
AUCAAGCAAUAUUACGGGCG,-1.34 ± 0.06,-0.467 ± 0.079
AUCAAGCAAUAUUACGGGGC,-3.13 ± 0.24,-3.01 ± 0.26
AUCAAGCAAUAUUACGGGGG,-3.79 ± 0.22,-2.64 ± 0.15
AUCAAGCAAUAUUACGGGUU,-3.44 ± 0.14,-1.22 ± 0.11
AUCAAGCAAUAUUACGUAAC,-2.98 ± 0.16,-2.18 ± 0.19
AUCAAGCAAUAUUACGUAUU,-2.7 ± 0.09,-1.5 ± 0.11
AUCAAGCAAUAUUACGUCGC,-4 ± 0.2,-2.65 ± 0.11
AUCAAGCAAUAUUACGUCUU,-1.86 ± 0.072,-0.301 ± 0.073
AUCAAGCAAUAUUACGUGAC,-2.04 ± 0.12,-1.07 ± 0.11
AUCAAGCAAUAUUACGUGAG,-0.619 ± 0.046,0.349 ± 0.073
AUCAAGCAAUAUUACGUGUU,-3.23 ± 0.11,-1.58 ± 0.097
AUCAAGCAAUAUUACGUUUU,-1.6 ± 0.097,-0.791 ± 0.12
AUCCAGCAAUAUUACGAAAG,-3.77 ± 0.18,-2.76 ± 0.21
AUCCAGCAAUAUUACGACCA,-0.725 ± 0.15,-0.224 ± 0.17
AUCCAGCAAUAUUACGCAAG,-2.75 ± 0.18,0.207 ± 0.14
AUCCAGCAAUAUUACGCACC,-1.19 ± 0.13,0.657 ± 0.17
AUCCAGCAAUAUUACGCGAC,-2.56 ± 0.14,-1.86 ± 0.18
AUCCAGCAAUAUUACGCGGA,-3.7 ± 0.25,-2.5 ± 0.17
AUCCAGCAAUAUUACGCUCG,-1.75 ± 0.26,-0.356 ± 0.22
AUCCAGCAAUAUUACGCUUA,-0.592 ± 0.064,0.389 ± 0.094
AUCCAGCAAUAUUACGCUUG,-3.27 ± 0.2,-2.7 ± 0.25
AUCCAGCAAUAUUACGGACA,-0.527 ± 0.099,-0.096 ± 0.11
AUCCAGCAAUAUUACGGACC,-1.71 ± 0.13,0.282 ± 0.13
AUCCAGCAAUAUUACGGAGC,-3.09 ± 0.21,-2.2 ± 0.24

Sequence,self-splicing fitness (ln) (30 °C),self-splicing fitness (ln) (37 °C)
AUCCAGCAAUAUUACGGCCA,-0.362 ± 0.071,-0.298 ± 0.084
AUCCAGCAAUAUUACGGCGG,-1.04 ± 0.09,-0.327 ± 0.11
AUCCAGCAAUAUUACGGCGU,-0.0553 ± 0.058,0.269 ± 0.07
AUCCAGCAAUAUUACGGGAG,-1.63 ± 0.066,-1.32 ± 0.074
AUCCAGCAAUAUUACGGGGC,-2.89 ± 0.14,-2.82 ± 0.26
AUCCAGCAAUAUUACGGUCU,-0.68 ± 0.053,-0.109 ± 0.074
AUCCAGCAAUAUUACGUAAC,-1.82 ± 0.13,-1.91 ± 0.22
AUCCAGCAAUAUUACGUAGA,-0.783 ± 0.073,-0.0552 ± 0.12
AUCCAGCAAUAUUACGUCAG,-2.99 ± 0.11,-2.15 ± 0.12
AUCCAGCAAUAUUACGUCCC,-0.894 ± 0.22,-1.1 ± 0.28
AUCCAGCAAUAUUACGUGCA,-1.63 ± 0.091,-0.196 ± 0.091
AUCCAGCAAUAUUACGUGCC,-3.16 ± 0.21,-1.09 ± 0.16
AUCCAGCAAUAUUACGUGCG,-1.65 ± 0.078,-0.875 ± 0.076
AUCCAGCAAUAUUACGUGUG,-1.79 ± 0.057,-0.983 ± 0.06
AUCGAGCAAUAUUACGAAUU,-3.57 ± 0.25,-2.1 ± 0.2
AUCGAGCAAUAUUACGACGG,-3.75 ± 0.44,-1.7 ± 0.33
AUCGAGCAAUAUUACGAGUU,-2.66 ± 0.23,-1.31 ± 0.18
AUCGAGCAAUAUUACGCAAG,-3.22 ± 0.43,-1.72 ± 0.26
AUCGAGCAAUAUUACGCGGC,-2.86 ± 0.5,-3.13 ± 0.47
AUCGAGCAAUAUUACGGCGG,-2.61 ± 0.14,-1.36 ± 0.14
AUCGAGCAAUAUUACGGGAA,-2.59 ± 0.24,-2.4 ± 0.22
AUCGAGCAAUAUUACGGGUC,-3.91 ± 0.19,-3.15 ± 0.18
AUCGAGCAAUAUUACGGUGG,,-2.04 ± 0.36
AUCGAGCAAUAUUACGGUUG,-3.96 ± 0.42,-3.32 ± 0.37

Sequence,self-splicing fitness (ln) (30 °C),self-splicing fitness (ln) (37 °C)
AUCGAGCAAUAUUACGUCAG,-3.36 ± 0.21,-2.99 ± 0.22
AUCGAGCAAUAUUACGUCUC,-3.13 ± 0.22,-2.18 ± 0.33
AUCGAGCAAUAUUACGUGGC,-2.91 ± 0.26,-2.52 ± 0.49
AUCGAGCAAUAUUACGUGUA,-3.46 ± 0.33,-2.11 ± 0.18
AUCGAGCAAUAUUACGUUAG,-3.73 ± 0.29,-0.583 ± 0.21
AUCGAGCAAUAUUACGUUCU,-1.32 ± 0.074,-1 ± 0.089
AUCGAGCAAUAUUACGUUGA,-3.44 ± 0.27,-2.94 ± 0.22
AUCGAGCAAUAUUACGUUGG,-4.07 ± 0.42,-2.37 ± 0.31
AUCUAGCAAUAUUACGAUUU,-0.629 ± 0.084,0.317 ± 0.11
AUCUAGCAAUAUUACGCAAC,-3.38 ± 0.37,-2.06 ± 0.32
AUCUAGCAAUAUUACGCACU,-1.42 ± 0.17,0.0807 ± 0.17
AUCUAGCAAUAUUACGCAUC,-4.16 ± 0.47,-2.81 ± 0.4
AUCUAGCAAUAUUACGCCGU,-0.173 ± 0.089,-0.324 ± 0.1
AUCUAGCAAUAUUACGCCUA,-1.09 ± 0.16,-0.389 ± 0.16
AUCUAGCAAUAUUACGCGAG,-1.92 ± 0.14,-0.183 ± 0.1
AUCUAGCAAUAUUACGGCGG,-1.12 ± 0.083,-1.15 ± 0.1
AUCUAGCAAUAUUACGGGCA,-1.25 ± 0.15,-0.862 ± 0.18
AUCUAGCAAUAUUACGGGGA,-1.48 ± 0.073,-1.03 ± 0.087
AUCUAGCAAUAUUACGGUAA,-0.976 ± 0.12,-0.736 ± 0.14
AUCUAGCAAUAUUACGUAGA,-2.39 ± 0.12,-0.832 ± 0.11
AUCUAGCAAUAUUACGUCAA,-2.6 ± 0.29,-1.68 ± 0.21
AUCUAGCAAUAUUACGUCAC,-4.04 ± 0.26,-2.11 ± 0.2
AUCUAGCAAUAUUACGUUGG,-3.4 ± 0.19,-1.88 ± 0.19
AUGAAGCAAUAUUACGAACC,0.0578 ± 0.14,0.124 ± 0.17

Sequence,self-splicing fitness (ln) (30 °C),self-splicing fitness (ln) (37 °C)
AUGAAGCAAUAUUACGACCC,-1.6 ± 0.22,
AUGAAGCAAUAUUACGAUGA,-0.515 ± 0.07,0.274 ± 0.089
AUGAAGCAAUAUUACGAUUA,-0.416 ± 0.082,0.189 ± 0.12
AUGAAGCAAUAUUACGAUUC,-2.23 ± 0.1,-1.33 ± 0.14
AUGAAGCAAUAUUACGCAGA,-1.63 ± 0.12,-0.868 ± 0.1
AUGAAGCAAUAUUACGCGCC,-0.426 ± 0.085,-0.127 ± 0.11
AUGAAGCAAUAUUACGCGUC,-4.16 ± 0.2,-1.48 ± 0.13
AUGAAGCAAUAUUACGCUUA,-0.65 ± 0.061,-0.151 ± 0.075
AUGAAGCAAUAUUACGGACA,-0.277 ± 0.077,0.5 ± 0.11
AUGAAGCAAUAUUACGGGGA,-2.4 ± 0.15,-1.31 ± 0.17
AUGAAGCAAUAUUACGGUGC,-2.3 ± 0.15,-1.99 ± 0.19
AUGAAGCAAUAUUACGUAGC,-4.32 ± 0.42,-1.45 ± 0.27
AUGAAGCAAUAUUACGUGUU,-1.64 ± 0.063,-1.64 ± 0.078
AUGCAGCAAUAUUACGACAU,-0.23 ± 0.012,0.215 ± 0.032
AUGCAGCAAUAUUACGACGU,-0.0321 ± 0.072,0.706 ± 0.083
AUGCAGCAAUAUUACGAGGA,-3.57 ± 0.28,-2.9 ± 0.21
AUGCAGCAAUAUUACGAGUG,-2.88 ± 0.11,-1.64 ± 0.11
AUGCAGCAAUAUUACGCAAG,-1.92 ± 0.091,-1.72 ± 0.096
AUGCAGCAAUAUUACGCAUA,,-2.06 ± 0.38
AUGCAGCAAUAUUACGCAUC,,-2.67 ± 0.28
AUGCAGCAAUAUUACGCCCA,-1.11 ± 0.12,0.0949 ± 0.14
AUGCAGCAAUAUUACGCUCU,-1.34 ± 0.084,0.22 ± 0.084
AUGCAGCAAUAUUACGCUUG,-3.06 ± 0.12,-2.85 ± 0.18
AUGCAGCAAUAUUACGCUUU,-2.72 ± 0.11,-1.75 ± 0.11
